Measurements taken from PMC5854381, “Dynamics of Scabin toxin. A proposal for the binding mode of the DNA substrate”.

Key:
[1] = system: NC(=O)c1ccc[n+]([C@@H]2O[C@H](COP(=O)(O)OP(=O)(O)OC[C@H]3O[C@@H](n4cnc5c4ncn4ccnc54)[C@H](O)[C@@H]3O)[C@@H](O)[C@H]2O)c1; test: purified protein; settings: pH 7.9
Scabin WT = Scabin WT (Streptomyces scabies, UniProt C9Z6T8 26-200); test: fluorescence anisotropy; no NAD+ mentioned; text labels this WT value N110A [sic]; Anisotropy: 5 uM Cy3-dsDNA, 25 mM Tris-HCl pH 8.2, 100 mM NaCl, 22 C; settings: protein: recombinant; label: 5' Cy3 on strand 1; blunt

## (Streptomyces scabiei 87.22)
[1]
  Km: 68 ± 3 µM

B1: Cy3-dsDNA 21 bp (dsDNA)
DNA 1: GGAAGAGAGAGAGAAAGAGAG
DNA 2: CTCTCTTTCTCTCTCTCTTCC
Scabin WT
  Kd: 51 ± 4 µM
